These results are taken from paper PMC12282144 (Journal of Virology, 2025).

Test [1] deals with T1, recombinant Fc-tagged NRP2 ectodomain (human, UniProt O60462 21-864).
T1 construct: not shown: Fc, C-terminal, kept
T1 sequence: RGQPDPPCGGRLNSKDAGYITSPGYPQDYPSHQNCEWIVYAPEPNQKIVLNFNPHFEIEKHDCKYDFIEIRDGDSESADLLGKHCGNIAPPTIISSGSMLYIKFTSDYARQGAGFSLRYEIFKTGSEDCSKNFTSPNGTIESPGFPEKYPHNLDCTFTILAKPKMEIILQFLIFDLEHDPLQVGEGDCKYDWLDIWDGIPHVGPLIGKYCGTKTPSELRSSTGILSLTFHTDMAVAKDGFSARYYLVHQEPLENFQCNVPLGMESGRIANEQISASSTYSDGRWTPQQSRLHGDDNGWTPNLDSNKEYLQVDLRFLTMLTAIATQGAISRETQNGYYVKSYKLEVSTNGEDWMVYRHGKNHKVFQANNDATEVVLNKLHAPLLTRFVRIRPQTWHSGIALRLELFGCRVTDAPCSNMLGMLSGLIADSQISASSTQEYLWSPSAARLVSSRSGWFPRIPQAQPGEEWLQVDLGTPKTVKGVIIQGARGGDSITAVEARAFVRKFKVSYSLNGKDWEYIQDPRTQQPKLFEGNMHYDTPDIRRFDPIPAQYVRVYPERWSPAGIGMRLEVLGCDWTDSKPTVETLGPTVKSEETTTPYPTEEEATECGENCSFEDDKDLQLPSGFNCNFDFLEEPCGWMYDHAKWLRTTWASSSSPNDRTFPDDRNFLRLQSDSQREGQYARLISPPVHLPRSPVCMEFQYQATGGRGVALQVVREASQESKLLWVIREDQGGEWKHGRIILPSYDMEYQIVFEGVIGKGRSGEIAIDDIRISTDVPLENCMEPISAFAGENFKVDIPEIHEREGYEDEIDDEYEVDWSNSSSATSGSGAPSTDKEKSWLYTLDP
Kind of test: […] (10, 20 or 50 µL, […]) in 0.2 mL PBS for 2 h; […]. Particulars: both partners purified.

Test [2] addresses T2, N-terminal GST-tagged soluble ectodomain of NRP2 (aa 17-865) (human, UniProt O60462 17-865).
T2 construct: not shown: GST, N-terminal, kept
T2 sequence: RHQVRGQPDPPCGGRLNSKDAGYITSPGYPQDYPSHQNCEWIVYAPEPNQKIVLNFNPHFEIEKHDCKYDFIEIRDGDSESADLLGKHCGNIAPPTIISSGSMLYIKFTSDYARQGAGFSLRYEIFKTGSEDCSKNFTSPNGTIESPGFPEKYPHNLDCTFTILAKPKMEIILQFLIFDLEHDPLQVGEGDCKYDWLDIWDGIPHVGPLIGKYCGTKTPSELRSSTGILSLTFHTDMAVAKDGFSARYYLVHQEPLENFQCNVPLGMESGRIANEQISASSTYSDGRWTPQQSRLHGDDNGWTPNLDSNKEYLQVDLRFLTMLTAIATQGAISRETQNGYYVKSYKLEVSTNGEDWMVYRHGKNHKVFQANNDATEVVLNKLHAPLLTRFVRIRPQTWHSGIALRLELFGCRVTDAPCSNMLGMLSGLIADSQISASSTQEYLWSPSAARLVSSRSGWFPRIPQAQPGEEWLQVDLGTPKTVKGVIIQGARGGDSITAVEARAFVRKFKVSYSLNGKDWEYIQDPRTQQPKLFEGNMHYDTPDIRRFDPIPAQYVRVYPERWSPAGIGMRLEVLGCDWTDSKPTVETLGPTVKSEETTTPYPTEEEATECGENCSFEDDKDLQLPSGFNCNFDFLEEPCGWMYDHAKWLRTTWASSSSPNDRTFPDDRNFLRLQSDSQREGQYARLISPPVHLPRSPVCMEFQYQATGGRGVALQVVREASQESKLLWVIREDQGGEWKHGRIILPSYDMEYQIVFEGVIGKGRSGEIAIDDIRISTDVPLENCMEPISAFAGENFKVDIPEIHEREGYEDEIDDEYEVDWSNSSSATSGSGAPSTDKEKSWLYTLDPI
Nature of the test: pull-down. As to conditions: both partners purified.

B1: RABV G on purified ERA(G/Flag) particles (natural protein)
chain: KFPIYTILDKLGPWSPIDIHHLSCPNNLVVEDEGCTNLSGFSYMELKVGYILAIKMNGFTCTGVVTEAETYTNFVGYVTTTFKRKHFRPTPDACRAAYNWKMAGDPRYEESLHNPYPDYRWLRTVKTTKESLVIISPSVADLDPYDRSLHSRVFPSGKCSGVAVSSTYCSTNHDYTIWMPENPRLGMSCDIFTNSRGKRASKGSETCGFVDERGLYKSLKGACKLKLCGVLGLRLMDGTWVAMQTSNETKWCPPDQLVNLHDFRSDEIEHLVVEELVRKREECLDALESIMTTKSVSFRRLSHLRKLVPGFGKAYTIFNKTLMEADAHYKSVRTWNEILPSKGCLRVGGRCHPHVNGVFFNGIILGPDGNVLIPEMQSSLLQQHMELLESSVIPLVHPLADPSTVFKDGDEAEDFVEVHLPDVHNQVSGVDLGLPNWGKYVLLSAGALTALMLIIFLMTCCRRVNRSEPTQHNLRGTGREVSVTPQSGKIISSWESHKSGGETRL
Turning to B1, the binding result in test [1] and in test [2] was “binds” throughout.
